T1: cynomolgus monkey FcγRIIa3 extracellular domain, His-tagged (cynomolgus monkey)
T1 construct: also called cyno FcγRIIa3; cynoFcgRIIa3
T1 chain: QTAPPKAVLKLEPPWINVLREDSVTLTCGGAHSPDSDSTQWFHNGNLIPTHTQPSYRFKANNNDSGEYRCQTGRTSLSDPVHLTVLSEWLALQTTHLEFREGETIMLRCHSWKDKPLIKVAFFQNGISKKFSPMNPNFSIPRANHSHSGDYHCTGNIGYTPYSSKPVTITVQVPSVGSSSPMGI

T2: cynomolgus monkey FcγRIIa2 extracellular domain, His-tagged (cynomolgus monkey)
T2 construct: also called cyno FcγRIIa2; cynoFcgRIIa2
T2 chain: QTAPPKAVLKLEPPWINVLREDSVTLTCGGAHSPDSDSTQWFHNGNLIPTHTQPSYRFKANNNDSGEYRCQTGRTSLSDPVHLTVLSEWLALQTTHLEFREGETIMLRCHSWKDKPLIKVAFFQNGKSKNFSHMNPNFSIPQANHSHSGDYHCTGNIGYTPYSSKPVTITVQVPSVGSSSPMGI

T3: cynomolgus monkey FcγRIIIaS extracellular domain, His-tagged (cynomolgus monkey, UniProt Q8SPW2 21-206 at identity 1.00))
T3 construct: also called cyno FcγRIIIaS; cynoFcγRIIIaS
T3 chain: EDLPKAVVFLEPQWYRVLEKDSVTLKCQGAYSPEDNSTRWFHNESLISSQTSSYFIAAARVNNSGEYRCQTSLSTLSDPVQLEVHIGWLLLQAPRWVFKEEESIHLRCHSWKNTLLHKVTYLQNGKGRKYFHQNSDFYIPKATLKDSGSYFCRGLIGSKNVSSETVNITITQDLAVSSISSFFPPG

T4: human FcγRIIb extracellular domain, His-tagged (human, UniProt P31994 43-217)
T4 construct: also called FcgRIIb (human)
T4 sequence: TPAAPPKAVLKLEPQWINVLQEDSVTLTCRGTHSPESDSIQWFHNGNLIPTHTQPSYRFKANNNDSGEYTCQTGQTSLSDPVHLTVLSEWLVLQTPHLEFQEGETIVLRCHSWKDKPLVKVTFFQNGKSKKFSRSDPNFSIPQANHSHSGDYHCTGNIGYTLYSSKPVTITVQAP

T5: cynomolgus monkey FcγRIIb extracellular domain, His-tagged (cynomolgus monkey)
T5 construct: also called cyno FcγRIIb; cynoFcγRIIb
T5 chain: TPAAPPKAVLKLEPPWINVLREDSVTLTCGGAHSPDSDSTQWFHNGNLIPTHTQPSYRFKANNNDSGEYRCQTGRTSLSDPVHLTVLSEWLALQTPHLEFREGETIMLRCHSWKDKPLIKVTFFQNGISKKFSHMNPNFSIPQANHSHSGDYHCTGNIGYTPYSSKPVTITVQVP

T6: human FcγRIIaR extracellular domain, His-tagged (human, UniProt P12318 34-217)
T6 construct: also called human FcγRIIa (type R); FcgRIIaR
T6 chain: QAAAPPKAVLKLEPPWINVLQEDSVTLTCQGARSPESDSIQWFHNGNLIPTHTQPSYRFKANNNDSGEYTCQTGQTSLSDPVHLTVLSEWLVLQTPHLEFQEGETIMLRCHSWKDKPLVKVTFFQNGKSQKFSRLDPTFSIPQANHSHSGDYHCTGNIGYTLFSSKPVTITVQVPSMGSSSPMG

T7: cynomolgus monkey FcγRIIa1 extracellular domain, His-tagged (cynomolgus monkey)
T7 construct: also called cyno FcγRIIa1; cynoFcgRIIa1
T7 chain: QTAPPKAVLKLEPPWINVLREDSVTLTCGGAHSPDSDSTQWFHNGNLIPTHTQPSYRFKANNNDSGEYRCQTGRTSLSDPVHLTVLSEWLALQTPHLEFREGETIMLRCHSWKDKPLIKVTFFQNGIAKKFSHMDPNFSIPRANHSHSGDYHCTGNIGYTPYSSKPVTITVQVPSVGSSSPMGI


Assays:
Assay in all cases: SPR; KD of SG1 / KD of variant
[1] = target: T1, cynomolgus monkey FcγRIIa3 …
[2] = target: T8, human FcγRIIIaV extracellular domain, His-tagged (human, UniProt P08637 17-208)
T8 construct: also called FcgRIIIaV

[3] = target: T2, cynomolgus monkey FcγRIIa2 …
[4] = target: T3, cynomolgus monkey FcγRIIIaS …
[5] = target: T4, human FcγRIIb extracellular domain, …
[6] = target: T5, cynomolgus monkey FcγRIIb extracellular …
[7] = target: T6, human FcγRIIaR extracellular domain, …
[8] = target: T7, cynomolgus monkey FcγRIIa1 …

T8 sequence (P08637 17-208 F176V): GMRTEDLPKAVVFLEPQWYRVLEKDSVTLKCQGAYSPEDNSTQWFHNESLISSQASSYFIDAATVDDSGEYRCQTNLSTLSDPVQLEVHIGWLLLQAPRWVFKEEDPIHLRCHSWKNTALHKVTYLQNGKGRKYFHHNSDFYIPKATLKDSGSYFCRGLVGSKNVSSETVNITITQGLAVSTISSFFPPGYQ

KD fold (SG1 = 1) [1] [fold]	KD fold (SG1 = 1) [2] [fold]	KD fold (SG1 = 1) [3] [fold]	KD fold (SG1 = 1) [4] [fold]	KD fold (SG1 = 1) [5] [fold]	KD fold (SG1 = 1) [6] [fold]	KD fold (SG1 = 1) [7] [fold]	KD fold (SG1 = 1) [8] [fold]	Binder
1	1	1	1	1	1	1	1	MS_M103205H795-SG1/M103202L889-SK1 (antibody, human IgG1, kappa, Parent antibody of the Fc variants; heavy chain constant region SG1, light chain M103202L889-SK1; also called MS1032LO06-SG1) heavy: not shown light: DIVMTQSPATLSLSPGERATLSCTSSQSVYHANWLSWFQQKPGQPPKLLIYWASTLAYGVPSRFSGSGSGTDFTLTISSLQPEDAATYYCAGGYGGGRYAFGQGTKVEIKRTVAAPSVFIFPPSDEQLKSGTASVVCLLNNFYPREAKVQWKVDNALQSGNSQESVTEQDSKDSTYSLSSTLTLSKADYEKHKVYACEVTHQGLSSPVTKSFNRGEC
0.3	1.98	1.1	1.09	1.2	0.9	0.2	0.7	M103205H795-MY013/M103202L889-SK1 (antibody, human IgG1, kappa, Substitution put into M103205H795-SG1) heavy: not shown light: DIVMTQSPATLSLSPGERATLSCTSSQSVYHANWLSWFQQKPGQPPKLLIYWASTLAYGVPSRFSGSGSGTDFTLTISSLQPEDAATYYCAGGYGGGRYAFGQGTKVEIKRTVAAPSVFIFPPSDEQLKSGTASVVCLLNNFYPREAKVQWKVDNALQSGNSQESVTEQDSKDSTYSLSSTLTLSKADYEKHKVYACEVTHQGLSSPVTKSFNRGEC
1.2	3.68	1	1.64	0.9	0.5	0.6	0.5	M103205H795-MY010/M103202L889-SK1 (antibody, human IgG1, kappa, Substitution put into M103205H795-SG1) heavy: not shown light: DIVMTQSPATLSLSPGERATLSCTSSQSVYHANWLSWFQQKPGQPPKLLIYWASTLAYGVPSRFSGSGSGTDFTLTISSLQPEDAATYYCAGGYGGGRYAFGQGTKVEIKRTVAAPSVFIFPPSDEQLKSGTASVVCLLNNFYPREAKVQWKVDNALQSGNSQESVTEQDSKDSTYSLSSTLTLSKADYEKHKVYACEVTHQGLSSPVTKSFNRGEC
4.7	1.12	2.7	1.13	2	2	0.6	1.6	M103205H795-MY006/M103202L889-SK1 (antibody, human IgG1, kappa, Substitution put into M103205H795-SG1) heavy: not shown light: DIVMTQSPATLSLSPGERATLSCTSSQSVYHANWLSWFQQKPGQPPKLLIYWASTLAYGVPSRFSGSGSGTDFTLTISSLQPEDAATYYCAGGYGGGRYAFGQGTKVEIKRTVAAPSVFIFPPSDEQLKSGTASVVCLLNNFYPREAKVQWKVDNALQSGNSQESVTEQDSKDSTYSLSSTLTLSKADYEKHKVYACEVTHQGLSSPVTKSFNRGEC
1.5	1.47	1.1	1.16	1.8	0.9	0.7	0.8	M103205H795-MY038/M103202L889-SK1 (antibody, human IgG1, kappa, Substitution put into M103205H795-SG1) heavy: not shown light: DIVMTQSPATLSLSPGERATLSCTSSQSVYHANWLSWFQQKPGQPPKLLIYWASTLAYGVPSRFSGSGSGTDFTLTISSLQPEDAATYYCAGGYGGGRYAFGQGTKVEIKRTVAAPSVFIFPPSDEQLKSGTASVVCLLNNFYPREAKVQWKVDNALQSGNSQESVTEQDSKDSTYSLSSTLTLSKADYEKHKVYACEVTHQGLSSPVTKSFNRGEC
2.3	1.69	1.2	1.38	1.6	0.5	0.9	0.8	M103205H795-MY041/M103202L889-SK1 (antibody, human IgG1, kappa, Substitution put into M103205H795-SG1) heavy: not shown light: DIVMTQSPATLSLSPGERATLSCTSSQSVYHANWLSWFQQKPGQPPKLLIYWASTLAYGVPSRFSGSGSGTDFTLTISSLQPEDAATYYCAGGYGGGRYAFGQGTKVEIKRTVAAPSVFIFPPSDEQLKSGTASVVCLLNNFYPREAKVQWKVDNALQSGNSQESVTEQDSKDSTYSLSSTLTLSKADYEKHKVYACEVTHQGLSSPVTKSFNRGEC
1.4	1.17	2	0.9	1	1.2	1.1	1.3	M103205H795-MY014/M103202L889-SK1 (antibody, human IgG1, kappa, Substitution put into M103205H795-SG1) heavy: not shown light: DIVMTQSPATLSLSPGERATLSCTSSQSVYHANWLSWFQQKPGQPPKLLIYWASTLAYGVPSRFSGSGSGTDFTLTISSLQPEDAATYYCAGGYGGGRYAFGQGTKVEIKRTVAAPSVFIFPPSDEQLKSGTASVVCLLNNFYPREAKVQWKVDNALQSGNSQESVTEQDSKDSTYSLSSTLTLSKADYEKHKVYACEVTHQGLSSPVTKSFNRGEC
1.5	2.15	1.1	1.8	1.8	0.8	1.2	0.8	M103205H795-MY037/M103202L889-SK1 (antibody, human IgG1, kappa, Substitution put into M103205H795-SG1) heavy: not shown light: DIVMTQSPATLSLSPGERATLSCTSSQSVYHANWLSWFQQKPGQPPKLLIYWASTLAYGVPSRFSGSGSGTDFTLTISSLQPEDAATYYCAGGYGGGRYAFGQGTKVEIKRTVAAPSVFIFPPSDEQLKSGTASVVCLLNNFYPREAKVQWKVDNALQSGNSQESVTEQDSKDSTYSLSSTLTLSKADYEKHKVYACEVTHQGLSSPVTKSFNRGEC
5.3	2.15	1.5	1.57	1.6	1.1	1.2	1.1	M103205H795-MY016/M103202L889-SK1 (antibody, human IgG1, kappa, Substitution put into M103205H795-SG1) heavy: not shown light: DIVMTQSPATLSLSPGERATLSCTSSQSVYHANWLSWFQQKPGQPPKLLIYWASTLAYGVPSRFSGSGSGTDFTLTISSLQPEDAATYYCAGGYGGGRYAFGQGTKVEIKRTVAAPSVFIFPPSDEQLKSGTASVVCLLNNFYPREAKVQWKVDNALQSGNSQESVTEQDSKDSTYSLSSTLTLSKADYEKHKVYACEVTHQGLSSPVTKSFNRGEC
0.7	1.29	1.4	0.97	1.8	1.1	0.6	0.8	M103205H795-MY008/M103202L889-SK1 (antibody, human IgG1, kappa, Substitution put into M103205H795-SG1) heavy: not shown light: DIVMTQSPATLSLSPGERATLSCTSSQSVYHANWLSWFQQKPGQPPKLLIYWASTLAYGVPSRFSGSGSGTDFTLTISSLQPEDAATYYCAGGYGGGRYAFGQGTKVEIKRTVAAPSVFIFPPSDEQLKSGTASVVCLLNNFYPREAKVQWKVDNALQSGNSQESVTEQDSKDSTYSLSSTLTLSKADYEKHKVYACEVTHQGLSSPVTKSFNRGEC
